Measurements from publication PMC3961337, “FRET-Based System for Probing Protein-Protein Interactions between σ^R and RsrA from Streptomyces Coelicolor in Response to the Redox Environment” (PLoS ONE, 2014).
Values belong to the binder of their own block, whether it stands above or below them.

Columns and labels:
Conditions in all cases: both partners purified
[1] = target: T1, sigR-yfp-pET28a (+) protein (SYP) (S. coelicolor M145, UniProt Q7AKG9 1-227, biotinylated for the biolayer interferometry only); assay: FRET or BRET; FRET efficiency titration: increasing SYP (or YFP) from 0.1 nM to 0.85 μM added to a determined concentration of RCP in binding buffer with 2.5 mM DTT; single-site binding curve
T1 construct: ECF sigma factor σR (SigR) of Streptomyces coelicolor, amplified from the M145 genome with primers sigRC and sigRD; the primers encode M-G-T-G-T-D-A at the start (after the NcoI site) and K-G-S-G-S before the HindIII site (worked out from the primers); σR, then K-L (HindIII site) and G-G-S, then YFP from M-V-S-K-G to M-D-E-L-Y-K (worked out from primers yfpC and yfpD), cloned NcoI/HindIII/XhoI in …

[2] = target: T2, SYP with the histidine tag removed by thrombin (zinc function assay) (S. coelicolor M145, UniProt Q7AKG9 1-227); assay: FRET or BRET; zinc function assay, Zn-sample (500 μM ZnSO4) after removal of DTT and addition of 1 mM diamide; FRET ratio emission 528 nm/478 nm
T2 construct: ECF sigma factor σR (SigR) of Streptomyces coelicolor, amplified from the M145 genome with primers sigRC and sigRD; the primers encode M-G-T-G-T-D-A at the start (after the NcoI site) and K-G-S-G-S before the HindIII site (worked out from the primers); Same construct as m3 after thrombin; not shown: YFP (after a glycine-glycine-serine linker), C-terminal, kept; His tag, N-terminal, cleaved

[3] = target: T2, SYP with the histidine tag removed by …; assay: FRET or BRET; zinc function assay, apo-sample: His tags removed by thrombin, zinc removed with 5 mM EDTA; SYP and RCP at the same concentration, no ZnSO4; FRET ratio emission 528 nm/478 nm
[4] = target: T2, SYP with the histidine tag removed by …; assay: FRET or BRET; zinc function assay with ZnSO4: His tags removed by thrombin; increasing ZnSO4 added to the mixture (Fig. 4A) and 500 μM ZnSO4 for the spectra (Fig. 4B); FRET ratio emission 528 nm/478 nm

T2 sequence (Q7AKG9 whole entry): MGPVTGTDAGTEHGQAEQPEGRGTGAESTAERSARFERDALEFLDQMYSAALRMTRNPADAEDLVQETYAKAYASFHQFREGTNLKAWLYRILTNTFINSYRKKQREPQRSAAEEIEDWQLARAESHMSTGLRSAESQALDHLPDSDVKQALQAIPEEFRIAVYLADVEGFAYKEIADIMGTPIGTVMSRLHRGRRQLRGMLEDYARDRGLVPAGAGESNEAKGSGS
T1 sequence (Q7AKG9 whole entry): as above

Kd [1]: 81 ± 29 nM
B1: rsrA-cfp-pET28a (+) protein (RCP) (natural protein, S. coelicolor M145, UniProt Q7AKG8 1-105, looked up)
chain: MSCGEPHETDCSEILDHLYEFLDKEMPDSDCVKFEHHFEECSPCLEKYGLEQAVKKLVKRCCGQDDVPGDLRAKVMGRLDLIRSGQSVPEHDVAAAPSSSAPQES
notes: anti-sigma factor RsrA of Streptomyces coelicolor, amplified from the M145 genome with primers rsrAA and rsrAB; RsrA, then E-F (EcoRI site) and G-G-S, then CFP from M-V-S-K-G to M-D-E-L-Y-K (worked out from primers cfpA and cfpB), cloned NcoI/EcoRI/HindIII in pET28a (+); source: E. coli BL21 (DE3), purified (Ni-NTA); also co-expressed with SYP in E. coli BL21 (DE3) cells, unpurified; not shown: …

FRET ratio (emission 528 nm/478 nm), Zn-sample with diamide [2]: 2.2 | FRET ratio (emission 528 nm/478 nm), no ZnSO4 added [3]: 2.3 | FRET ratio (emission 528 nm/478 nm), with 500 μM ZnSO4 [4]: 2.8
B2: RCP with the histidine tag removed by thrombin (zinc function assay) (natural protein, S. coelicolor M145, UniProt Q7AKG8 1-105, looked up)
chain: B1 chain
notes: anti-sigma factor RsrA of Streptomyces coelicolor, amplified from the M145 genome with primers rsrAA and rsrAB; Same construct as m4 after thrombin; Zinc removed with EDTA (apo-RCP); Zn-RCP is the same protein with 500 uM ZnSO4 added; also called apo-RCP; Zn-RCP; not shown: CFP (after a glycine-glycine-serine linker), C-terminal, kept; His tag, N-terminal, cleaved
